Test system: MS2 coat protein
Assay: apparent KD of MS2 coat protein; designed switch direction (-1 OFF switch, 1 ON switch): 1; higher = weaker reporter binding
How it was run: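 On Illumina chips, designed RNA switches with common flanks were made by stalled E. coli RNA polymerase. Titrations with SNAP-549-labelled MS2 coat protein, doubling from 0.7 or 1.5 nM to 3 µM, were done with no input, with 200 uM small-molecule ligand, or with an oligonucleotide input. Apparent KD is the median per design over clusters, from curve fits of normalised cluster fluorescence.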

[1] = input ligand: microRNA oligo, concentration not stated
[2] = Eterna round: R95, input ligand: FMN 200 uM
[3] = Eterna round: R95, input ligand: microRNA oligo, concentration not stated
[4] = Eterna round: R95, input ligand: none

UGAAUAUCUACAGGAUAUGAGUUGUAUAGUGGAUCAGAAGGGUGGGUGUUUUGCACGGUGUGUUACAUGAGGAUCACCCAUGUU [SameState NG1 #25] (Eterna round: R96, puzzle: Same State NG 1)
apparent KD of MS2 coat protein (input ligand: FMN 200 uM): 302 nM | apparent KD of MS2 coat protein [1]: 139 nM | apparent KD of MS2 coat protein (input ligand: none): 324 nM

GUAAAACAUGAGGAUCACCCAUGUCAACAAAGUCGAGGAUAUGGGCAAAUAAAAUAAGAACCAGAAGGCGAAUAAG [salish99_SS1_r3_009] (Eterna round: R96, puzzle: Same State 1)
apparent KD of MS2 coat protein (input ligand: FMN 200 uM): 45.9 nM | apparent KD of MS2 coat protein [1]: 125 nM | apparent KD of MS2 coat protein (input ligand: none): 235 nM

ACAAGCUUUUCUGUAUUGAAAGGUGGGAUACAUGAGGAUCACCCAUGUUUUUUUGUUUAUAUUUGUCCUCGUCUUAU [JR_SHM208A_Sub087] (puzzle: Sensor for hsa-mir-208a)
apparent KD of MS2 coat protein [2]: 52.7 nM | apparent KD of MS2 coat protein [3]: 33.2 nM | apparent KD of MS2 coat protein [4]: 46.7 nM

UCUUGGUUUUUGCUCGUUUUUUGUGUUGAACAUGAGGAUCACCCAUGUAUUGUACGGUCCAGUUUGAUAAUGGUCCG [JMF 34] (Eterna round: R96, puzzle: Sensor for hsa-mir-208a)
apparent KD of MS2 coat protein (input ligand: FMN 200 uM): 35.2 nM | apparent KD of MS2 coat protein [1]: 13.3 nM | apparent KD of MS2 coat protein (input ligand: none): 40.2 nM

GAUUAACAUGAGGAUCACCCAUGUCGUUAUAUGGGAGGAUAUACGUGGACCGUAGUCCGCGUAGAAGGCCUAAUUG [Mat - Same State 1 - Mod of JL - D23] (puzzle: Same State 1)
apparent KD of MS2 coat protein [3]: 188 nM

UAGAGAGGAAGCGAGGAUAUCGUGUGAGGUACAUGAGGAUCACCCAUGUUUGAUGUUGAGAGAGGCGAGAAGGCGCAGGAGAUUA [JR_SS2_Sub084] (puzzle: Same State 2)
apparent KD of MS2 coat protein [2]: 34.1 nM | apparent KD of MS2 coat protein [3]: 26.6 nM | apparent KD of MS2 coat protein [4]: 35.6 nM

GGAGGACAUGAGGAUCACCCAUGUGGAUGAUCGCUAGGAUAUGCGUGCAGGAAGAGUGGUGCAGAAGGAGUGGGAU [JR_SS1_Sub048] (puzzle: Same State 1)
apparent KD of MS2 coat protein [3]: 348 nM

GUUACAUGAGGAUCACCCAUGUAUGUGUGGGAGUAAGUGUCUUAGGAUAUCUAGUAUUUAGUUUAAGAGAAGGAAGAUUGUUGU [JMF's solution 61] (Eterna round: R96, puzzle: Same State NG 3)
apparent KD of MS2 coat protein (input ligand: FMN 200 uM): 127 nM | apparent KD of MS2 coat protein [1]: 90 nM | apparent KD of MS2 coat protein (input ligand: none): 88.2 nM

GGGAGAGUUACAGGAUAUGGUGAGGAUUACCCACUAGAAGGGUAAACAUGUGAAUCGGACAUGAGGAUCACCCAUGUUGGGCGU (Eterna round: R96, puzzle: Same State NG 1)
apparent KD of MS2 coat protein (input ligand: FMN 200 uM): 162 nM | apparent KD of MS2 coat protein [1]: 160 nM | apparent KD of MS2 coat protein (input ligand: none): 203 nM

GACAAUCUAUCUGAGGAUAUCAUGAAGAAAACAUGAGGAUCACCCAUGUGCAGGAGAACUGCAAAUGAGAAGGCAGAUAGAUUGG [Mat - Same State 2 - Mod - D2] (puzzle: Same State 2)
apparent KD of MS2 coat protein [2]: 8.71 nM | apparent KD of MS2 coat protein [3]: 13.1 nM | apparent KD of MS2 coat protein [4]: 20.4 nM

CGCGAACAGGCAGGAUAUAUAGAGCCAAAUAUUGUAGAAGGGCCACGUGCGGGAAGAGAACACAUGAGGAUCACCCAUGUUCGA [Eternabot solution 5] (Eterna round: R96, puzzle: Same State NG 1)
apparent KD of MS2 coat protein (input ligand: FMN 200 uM): 27.4 nM | apparent KD of MS2 coat protein [1]: 27.9 nM | apparent KD of MS2 coat protein (input ligand: none): 30.7 nM

AUUAUACAUGAGGAUCACCCAUGUAAUUAAUUAAUUAAGAUCUAGGAUAUCAGCUCGAAUAGAGCUGAGAAGGAGAUCACAUGU [SSNG3/20-C1] (Eterna round: R96, puzzle: Same State NG 3)
apparent KD of MS2 coat protein [1]: 24.2 nM

GUGGUCAGACAUGAGGAUCACCCAUGUGGAAUAAAUAAGGACAAGGAUAUGGAAUAUAGGAUAUACCAGAAGGUGUGGUUGGUG (Eterna round: R96, puzzle: Same State NG 3)
apparent KD of MS2 coat protein [1]: 67.5 nM

AAAAUCUACGAAAGUAGAACAAGCUUAAGACAUGAGGAUCACCCAUGUCAUGUCUUAAAACAUGAGGAAACUCAUGA [hsa-mir-208a sensor: 17] (Eterna round: R96, puzzle: Sensor for hsa-mir-208a)
apparent KD of MS2 coat protein (input ligand: FMN 200 uM): 273 nM | apparent KD of MS2 coat protein [1]: 182 nM | apparent KD of MS2 coat protein (input ligand: none): 252 nM

UUCCCAUCGGGAGGAUAUGGAACCUUAUUGGUUCUAGAAGGUCCAACAUGAGGAUCACCCAUGUGGGAGUGGUCUAAUGACCUC [SS NG10LRO03] (Eterna round: R96, puzzle: Same State NG 1)
apparent KD of MS2 coat protein (input ligand: FMN 200 uM): 264 nM | apparent KD of MS2 coat protein [1]: 288 nM | apparent KD of MS2 coat protein (input ligand: none): 333 nM

AAGCAGAGGCAAGGAUAUGUGAAGACCCAGCCUAGGCUGGGCACAUGAGGAUCACCCAUGUACAAACAGAAGGUGUAACCAGGC [Eternabot solution 18] (Eterna round: R96, puzzle: Same State NG 2)
apparent KD of MS2 coat protein (input ligand: FMN 200 uM): 40.5 nM | apparent KD of MS2 coat protein [1]: 116 nM | apparent KD of MS2 coat protein (input ligand: none): 161 nM

AGGGCCGCGGCACAGGAUAUGCACAGGUUCACAUGAGGAUCACCCAUGUGCUCUAGAUAGCUUGAGCAGAAGGGUGUCAUGGUAA [Beadi] (puzzle: Same State 2)
apparent KD of MS2 coat protein [2]: 16.3 nM | apparent KD of MS2 coat protein [3]: 18.2 nM | apparent KD of MS2 coat protein [4]: 27.9 nM

GGCUGUUAAUUAGGAUAUGGUCACAUGAGGAUCACCCAUGUAACGAUGAUACGAUGUGGUCAAGACUAGAAGGGAUCGCUAACA [SameState NG2 #71] (Eterna round: R96, puzzle: Same State NG 2)
apparent KD of MS2 coat protein (input ligand: FMN 200 uM): 172 nM | apparent KD of MS2 coat protein [1]: 128 nM | apparent KD of MS2 coat protein (input ligand: none): 105 nM

UUUGGGUGGCUGGAGGAUAUCCUGGUUGUUACAUGAGGAUCACCCAUGUGCCGCGCGGUGCGCUGGGAGAAGGCUGGCGGCCGUU (puzzle: Same State 2)
apparent KD of MS2 coat protein [3]: 71.8 nM

GUGGAGAAUUAAGGAUAUCGAGUCAAGAUGUUAAACAUGAGGAUCACCCAUGUGGGUUGCGGUAUCGAGAAGGUAAUUUACGGG [salish99_SSNG2_r04_505] (Eterna round: R96, puzzle: Same State NG 2)
apparent KD of MS2 coat protein (input ligand: FMN 200 uM): 22.4 nM | apparent KD of MS2 coat protein [1]: 21.3 nM | apparent KD of MS2 coat protein (input ligand: none): 36.8 nM

GUGCAACCGUGUGAGGAUAUCGGUGAAUAGACAUGAGGAUCACCCAUGUCCGAAGCUCGGUUCUCCGAGAAGGCGCACAGUUGCA [Same State 2 - Mod of Erisin v.5] (puzzle: Same State 2)
apparent KD of MS2 coat protein [2]: 42.8 nM | apparent KD of MS2 coat protein [3]: 41.5 nM | apparent KD of MS2 coat protein [4]: 52.4 nM

AUUAUUAAUGCAGGAUAUGAUUAACAUGAGGAUCACCCAUGUGGUGUUGUGAGUAAGGAGAGUGAUCAGAAGGGCAGUUUUUUU [JMF's solution 8] (Eterna round: R96, puzzle: Same State NG 2)
apparent KD of MS2 coat protein (input ligand: FMN 200 uM): 614 nM | apparent KD of MS2 coat protein [1]: 227 nM | apparent KD of MS2 coat protein (input ligand: none): 262 nM

UCUUGGUUUUUGCUCGUUUUUUGUGUUGAACAUGAGGAUCACCCAUGUAUUAUACGGUCCGGUUUAGUAGUGGUCCG [JMF 79] (puzzle: Sensor for hsa-mir-208a)
apparent KD of MS2 coat protein [2]: 28.2 nM | apparent KD of MS2 coat protein [3]: 16 nM | apparent KD of MS2 coat protein [4]: 31.1 nM

GGUCCAGCCUGAGCUGGACAAAAGCAUGUACAUGAGGAUCACCCAUGUCAUGUACAAGCUUUUUGCUCGUCUUAAUA [Mat - hsa-mir-208a - 89] (puzzle: Sensor for hsa-mir-208a)
apparent KD of MS2 coat protein [2]: 583 nM | apparent KD of MS2 coat protein [3]: 15 nM | apparent KD of MS2 coat protein [4]: 548 nM

ACUCAGUACAAUUUAGAUCUACAUGAGGAUCACCCAUGUACUGAGGAUAUCAGCUCGAAUAGAGCUGAGAAGGCAGUUGUACUA [SSNG3/10-A1] (Eterna round: R96, puzzle: Same State NG 3)
apparent KD of MS2 coat protein (input ligand: FMN 200 uM): 102 nM | apparent KD of MS2 coat protein [1]: 138 nM | apparent KD of MS2 coat protein (input ligand: none): 248 nM

UUUAGAUCGCGAGGAUAUCGCGAGGAUCACCCGUGAGAAGGCGCAGAGCCGAGGAUCACCCGGCUGAUCCUGAGGAGGAGGUCU (Eterna round: R96, puzzle: Same State NG 1)
apparent KD of MS2 coat protein (input ligand: FMN 200 uM): 106 nM | apparent KD of MS2 coat protein [1]: 184 nM | apparent KD of MS2 coat protein (input ligand: none): 269 nM

UAGUGCGUUAGAGGAUAUUCUAAAAUAAAAUAAAAGACAUGAGGAUCACCCAUGUAUGUACAUGGGAAGAAGGCUGAUGUGCUA [Omei SS(NG)2 Bv1] (Eterna round: R96, puzzle: Same State NG 2)
apparent KD of MS2 coat protein [1]: 296 nM

GUAGCAUACCGAGGAUAUUCAUAUAAUAUUACAUGAGGAUCACCCAUGUAUAGGCGAAAGCCUUGGGAGAAGGCGGAAUGCUAC [Xeonanis - 20 Mod61] (Eterna round: R96, puzzle: Same State NG 2)
apparent KD of MS2 coat protein (input ligand: FMN 200 uM): 13.2 nM | apparent KD of MS2 coat protein [1]: 24.9 nM | apparent KD of MS2 coat protein (input ligand: none): 28.6 nM

CGGCGCUGUUGAGAGGAUAUGCGGUGAUGGACAUGAGGAUCACCCAUGUUAGCGAUAGCAUUACGGUAGAAGGCUCUACAGCUGC [Soteed Omei mod 6] (puzzle: Same State 2)
apparent KD of MS2 coat protein [3]: 18.9 nM

GCUGGAAAUCACAUGAGGAUCACCCAUGUUCCGGAAACGGCACAGGAUAUCUGUCCGAAAAGGUCAGAGAAGGGUGAAACCAGC [Fiskers NG3ss - 85] (Eterna round: R96, puzzle: Same State NG 3)
apparent KD of MS2 coat protein (input ligand: FMN 200 uM): 303 nM | apparent KD of MS2 coat protein [1]: 56.1 nM | apparent KD of MS2 coat protein (input ligand: none): 105 nM

ACAUGAGACCUAGGAUAUCUUGUACCUACAUGUGACAUGAGGAUCACCCAUGUGGUAAGUAUGAUAGAGAAGGAGGAGAUAUGU [Equivalance 55 - Jieux - Same State NG 2] (Eterna round: R96, puzzle: Same State NG 2)
apparent KD of MS2 coat protein (input ligand: FMN 200 uM): 15.6 nM | apparent KD of MS2 coat protein [1]: 39.8 nM | apparent KD of MS2 coat protein (input ligand: none): 51.9 nM

CCGGCAAGUAUAGGAUAUCCCGCAACAGAAACGGGAGAAGGGUGCCAAACAUGAGGAUCACCCAUGUACACCGGAAAUAAAUAA [Lazaorra] (Eterna round: R96, puzzle: Same State NG 1)
apparent KD of MS2 coat protein (input ligand: FMN 200 uM): 54.9 nM | apparent KD of MS2 coat protein [1]: 56.4 nM | apparent KD of MS2 coat protein (input ligand: none): 46.9 nM
